Measured values published in patent publication US20240327504A1 (MABLOC, published 2024).

Target: SARS-CoV-2 Spike, WT (SARS-CoV-2, UniProt P0DTC2 14-1273)
Test: cell-based or functional assay

B1: MR22950 antibody (antibody, V domains shown)
VH: QLQLQESGPGLVKPSEPLSLTCAVSGGFIGTNWWTWIRQPPGKGLEWIGRISGSVGSTSYNPSLKSRVTISRDTSKNQFSLNLNSLTAADTAVYYCAREGRLDTLDWGQGVLVIVSS
VL: QSVLTQPPSASEAARKSVTISCSGSSSNIGSYSVSWYQQFPGTPPKLLIYFNDQRASGVSDRFSGSKSGTSASLAISGLQTEDEADYYCAGWDDSLNGVLFGGGTRLTVLG
  Neut50: 6 ng/mL
